Experiments:
[1] = substrate: CC(=O)N[C@@H](C)C(=O)N[C@@H](CC(C)C)C(=O)N[C@@H](CCCNC(=N)N)C(=O)N[C@@H](CCCNC(=N)N)C(=O)N[C@@H](Cc1ccccc1)C(=O)N[C@@H](CO)C(=O)N[C@@H](CC(C)C)C(=O)N[C@@H](CSCc1ccc2c(S(=O)(=O)N(C)C)ccc(O)c2n1)C(=O)N[C@@H](C)C(=O)N[C@@H](C)C(N)=O; experiment: (§1) Activity of Aurora A
[2] = substrate: CC(=O)N[C@@H](C)C(=O)NCC(=O)N[C@@H](CCCNC(=N)N)C(=O)N[C@@H](CCCNC(=N)N)C(=O)N[C@@H](Cc1ccc(O)cc1)C(=O)N[C@@H](CO)C(=O)N[C@@H](CC(C)C)C(=O)N[C@@H](CSCc1ccc2c(S(=O)(=O)N(C)C)ccc(O)c2n1)C(=O)N[C@H](C)C(=O)N[C@@H](C)C(N)=O; experiment: as §1
[3] = substrate: CC(=O)N[C@@H](C)C(=O)N[C@@H](CC(C)C)C(=O)N[C@@H](CCCNC(=N)N)C(=O)N[C@@H](CCCNC(=N)N)C(=O)N[C@@H](C)C(=O)N[C@@H](CO)C(=O)N[C@@H](CC(C)C)C(=O)N[C@@H](CSCc1ccc2c(S(=O)(=O)N(C)C)ccc(O)c2n1)C(=O)N[C@@H](C)C(=O)N[C@@H](C)C(N)=O; experiment: as §1
[4] = substrate: CC(=O)N[C@@H](C)C(=O)N[C@@H](CC(C)C)C(=O)N[C@@H](CCCNC(=N)N)C(=O)N[C@@H](CCCNC(=N)N)C(=O)N[C@@H](Cc1ccccc1)C(=O)N[C@@H](CO)C(=O)N[C@@H](CC(C)C)C(=O)N[C@@H](CSCc1ccc2c(S(=O)(=O)N(C)C)ccc(O)c2n1)C(=O)NCC(=O)N[C@@H](C)C(N)=O; experiment: as §1
[5] = substrate: CC(=O)N[C@@H](C)C(=O)N[C@@H](CC(C)C)C(=O)N[C@@H](CCCNC(=N)N)C(=O)N[C@@H](CCCNC(=N)N)C(=O)N[C@@H](Cc1ccccc1)C(=O)N[C@@H](CO)C(=O)N[C@@H](CC(C)C)C(=O)N[C@@H](CSCc1ccc2c(S(=O)(=O)N(C)C)ccc(O)c2n1)C(=O)N[C@@H](C)C(=O)N[C@@H](C)C(N)=O; experiment: (§2) Ratio of Kcat to Km for Aurora A
[6] = substrate: CC(=O)N[C@@H](C)C(=O)NCC(=O)N[C@@H](CCCNC(=N)N)C(=O)N[C@@H](CCCNC(=N)N)C(=O)N[C@@H](Cc1ccc(O)cc1)C(=O)N[C@@H](CO)C(=O)N[C@@H](CC(C)C)C(=O)N[C@@H](CSCc1ccc2c(S(=O)(=O)N(C)C)ccc(O)c2n1)C(=O)N[C@H](C)C(=O)N[C@@H](C)C(N)=O; experiment: as §2
[7] = substrate: CC(=O)N[C@@H](C)C(=O)N[C@@H](CC(C)C)C(=O)N[C@@H](CCCNC(=N)N)C(=O)N[C@@H](CCCNC(=N)N)C(=O)N[C@@H](C)C(=O)N[C@@H](CO)C(=O)N[C@@H](CC(C)C)C(=O)N[C@@H](CSCc1ccc2c(S(=O)(=O)N(C)C)ccc(O)c2n1)C(=O)N[C@@H](C)C(=O)N[C@@H](C)C(N)=O; experiment: as §2
[8] = substrate: CC(=O)N[C@@H](C)C(=O)N[C@@H](CC(C)C)C(=O)N[C@@H](CCCNC(=N)N)C(=O)N[C@@H](CCCNC(=N)N)C(=O)N[C@@H](Cc1ccccc1)C(=O)N[C@@H](CO)C(=O)N[C@@H](CC(C)C)C(=O)N[C@@H](CSCc1ccc2c(S(=O)(=O)N(C)C)ccc(O)c2n1)C(=O)NCC(=O)N[C@@H](C)C(N)=O; experiment: as §2

B1: Aurora kinase A (Homo sapiens), O14965 (protein)
chain: MDRSKENCISGPVKATAPVGGPKRVLVTQQFPCQNPLPVNSGQAQRVLCPSNSSQRIPLQAQKLVSSHKPVQNQKQKQLQATSVPHPVSRPLNNTQKSKQPLPSAPENNPEEELASKQKNEESKKRQWALEDFEIGRPLGKGKFGNVYLAREKQSKFILALKVLFKAQLEKAGVEHQLRREVEIQSHLRHPNILRLYGYFHDATRVYLILEYAPLGTVYRELQKLSKFDEQRTATYITELANALSYCHSKRVIHRDIKPENLLLGSAGELKIADFGWSVHAPSSRRTTLCGTLDYLPPEMIEGRMHDEKVDLWSLGVLCYEFLVGKPPFEANTYQETYKRISRVEFTFPDFVTEGARDLISRLLKHNPSQRPMLREVLEHPWITANSSKPSNCQNKESASKQS
[1]
  Km: 152 µM
  Vmax: 2.6 µmol/min/mg
[2]
  Km: 65 µM
  Vmax: 1.8 µmol/min/mg
[3]
  Km: 298 µM
  Vmax: 1.7 µmol/min/mg
[4]
  Km: 57.1 µM
  Vmax: 2.2 µmol/min/mg
[5]
  kcat/Km: 50000 M⁻¹ s⁻¹
[6]
  kcat/Km: 83300 M⁻¹ s⁻¹
[7]
  kcat/Km: 16700 M⁻¹ s⁻¹
[8]
  kcat/Km: 117000 M⁻¹ s⁻¹
